The target of assay [1] is T1, PTD10 (Hs-PDGF-B_136-145), synthetic peptide IEIVRKKPIFC (human).
T1 peptide: IEIVRKKPIFC
As to the kind of experiment: dot blot, anti-6His Ab-HRP detection.

In assay [2] the target is T2, PTD8 (Ec-AP_159-168), synthetic peptide LVAHVTSRKC (Escherichia coli).
T2 construct: also called control peptide (unrelated) in the Cas9 blots
T2 peptide: LVAHVTSRKC
In words: dot blot, anti-6His Ab-HRP detection.

In assay [3] the target is T2, PTD8 (Ec-AP_159-168), synthetic peptide …. In words: dot blot, peptide spotted on NC membrane, anti-6His Ab-HRP detection.
For assay [4], the target named is T3, Cas9 protein without any tag (no tag), recombinant Streptococcus pyogenes Cas9 (Streptococcus pyogenes, UniProt Q99ZW2 1-1368).
T3 construct: also called Cas9 (no tag); tagless Cas9
T3 sequence (Q99ZW2 whole entry): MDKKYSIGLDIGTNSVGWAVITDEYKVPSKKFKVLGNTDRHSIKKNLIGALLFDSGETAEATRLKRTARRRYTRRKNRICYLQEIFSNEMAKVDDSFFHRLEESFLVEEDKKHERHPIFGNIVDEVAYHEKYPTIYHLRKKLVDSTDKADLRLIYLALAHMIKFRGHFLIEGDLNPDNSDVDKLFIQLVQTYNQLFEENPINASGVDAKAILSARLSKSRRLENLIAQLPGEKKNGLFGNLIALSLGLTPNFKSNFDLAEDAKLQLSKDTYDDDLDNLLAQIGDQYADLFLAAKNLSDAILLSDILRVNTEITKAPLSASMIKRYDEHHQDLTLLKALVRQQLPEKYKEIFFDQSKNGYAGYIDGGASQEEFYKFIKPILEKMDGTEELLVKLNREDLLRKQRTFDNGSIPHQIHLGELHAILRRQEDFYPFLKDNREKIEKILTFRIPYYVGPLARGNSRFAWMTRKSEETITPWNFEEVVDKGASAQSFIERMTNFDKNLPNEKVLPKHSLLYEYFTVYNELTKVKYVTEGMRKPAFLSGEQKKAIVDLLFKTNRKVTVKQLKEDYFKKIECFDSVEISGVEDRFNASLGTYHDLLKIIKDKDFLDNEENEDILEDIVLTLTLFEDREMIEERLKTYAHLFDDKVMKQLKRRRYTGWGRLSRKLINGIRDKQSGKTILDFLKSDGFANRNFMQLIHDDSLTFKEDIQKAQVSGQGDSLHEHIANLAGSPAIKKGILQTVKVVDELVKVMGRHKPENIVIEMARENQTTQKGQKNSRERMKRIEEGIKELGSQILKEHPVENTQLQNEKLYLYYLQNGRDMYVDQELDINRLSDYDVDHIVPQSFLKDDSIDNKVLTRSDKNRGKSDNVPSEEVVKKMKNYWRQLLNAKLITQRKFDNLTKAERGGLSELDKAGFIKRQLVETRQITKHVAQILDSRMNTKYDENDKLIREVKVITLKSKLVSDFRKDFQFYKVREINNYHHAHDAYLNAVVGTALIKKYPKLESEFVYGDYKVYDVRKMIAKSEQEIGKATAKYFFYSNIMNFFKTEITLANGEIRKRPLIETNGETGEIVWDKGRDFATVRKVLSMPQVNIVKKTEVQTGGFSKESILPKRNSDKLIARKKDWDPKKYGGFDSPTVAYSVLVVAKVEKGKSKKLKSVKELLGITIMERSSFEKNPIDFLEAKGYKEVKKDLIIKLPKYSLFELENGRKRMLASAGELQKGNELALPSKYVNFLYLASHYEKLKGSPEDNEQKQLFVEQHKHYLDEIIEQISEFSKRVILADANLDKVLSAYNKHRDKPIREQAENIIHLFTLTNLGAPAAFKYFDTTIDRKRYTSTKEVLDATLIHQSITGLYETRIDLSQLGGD
As to the kind of experiment: dot blot (non-denatured) and western blot (denatured), anti-6His Ab-HRP detection.

Assay [5] has as its target T2, PTD8 (Ec-AP_159-168), synthetic peptide …. In words: dot blot, AP fusion as 1st Ab, NBT/BCIP.
Assay [6] concerns the target T4, purified horseradish peroxidase (HRP) protein (horseradish, UniProt P00433 31-338).
T4 sequence (looked up): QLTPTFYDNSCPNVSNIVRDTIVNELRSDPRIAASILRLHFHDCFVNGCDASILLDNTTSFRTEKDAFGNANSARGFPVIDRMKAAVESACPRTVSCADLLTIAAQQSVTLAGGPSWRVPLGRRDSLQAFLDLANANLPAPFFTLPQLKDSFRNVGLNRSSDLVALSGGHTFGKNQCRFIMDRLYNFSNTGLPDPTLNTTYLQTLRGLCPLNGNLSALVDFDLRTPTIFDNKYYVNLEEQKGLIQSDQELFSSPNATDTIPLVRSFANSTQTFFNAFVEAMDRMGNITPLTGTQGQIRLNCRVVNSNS
In words: dot blot, HRP captured by V5C2-L-HRPC2 bound to immobilized PTD19, chromogenic substrate.

Ends that are not written are not given here.

B1: PTD20 (2GS6H), synthetic linker-His-tag oligopeptide (peptide)
peptide: GSGSHHHHHH
notes: also called linker-His-tag only; negative control
For B1, the binding result in assay [1] and in assay [2] was “no binding” each time.

B2: PTD18 (Hs-PDGF-B_CAA136-145PAPH), synthetic His-tagged CAAP oligopeptide dimer, parallel and antiparallel (designed binder)
peptide: DLDYAQLRDKCYPENEDRLQSYDLDGSGSHHHHHH
modifications: also: dimer, parallel and antiparallel
notes: also called Anti-PDGF sAb
Take B2: the binding result in assay [1] was “binds”.

B3: PTD14 (Sp-C9_CAA813-821PAPH), synthetic His-tagged CAAP oligopeptide dimer (designed binder)
peptide: LLQVDVILLCYPENLEQIKIRLFGSGSHHHHHH
modifications: also: dimer
notes: also called sAb dimer; CCAAP sAb dimer
For the molecule B3, the binding result in assay [3] is “no binding”; in assay [4], “binds”.

B4: PTD16 (Ec-AP_CAA159-168PAPH), synthetic His-tagged CAAP oligopeptide dimer, parallel and antiparallel (designed binder)
peptide: EYRLYLRALCYPENLSRAYLSYEGSGSHHHHHH
modifications: also: dimer, parallel and antiparallel
For the molecule B4, the binding result in assay [2] was “binds”.

B5: C9-813-CAA2 (dimer, parallel-linker-antiparallel), recombinant CAAP oligopeptide-AP fusion protein (designed binder, not shown: small tags and cut ends; large carriers)
chain: MHHHHHHELLLSVEVQQLCYPENLEYLFIEKL
notes: also called rAb C9-813-CAA2; dimer construct
As to B5, the binding result in assay [5] is recorded as “no binding”.

B6: V5C2-L-HRPC2, purified polypeptide with two CAAP box dimer arms designed to interact with V5 epitope and HRP (designed binder)
chain: MSRKEARELCYPENGLEALIRSGGGSGGGSGGGSYYLRKRILCYPENQVLERSNEGSGSKLLEHHHHHH
As to B6, the binding result in assay [6] is “binds”.

The values above are taken from US20210017226A1 (PEPTION, published 2021).
